The supplement of paper PMC12042874
± gives the uncertainty stated by the source.

Test: amyloid nucleation score (Sup35N fusion, yeast selection) (log enrichment); library NNK1; higher = more nucleation; inactive = no reads after selection
In short: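 Yeast lacking psi expressed peptides of 20 random codons fused to Sup35N, received 100 μM copper sulfate for 24 hours, and were then grown for 7 days at 30°C on medium lacking adenine and uracil. Illumina sequencing of input and output plasmid inserts provided the reads. Nucleation scores are DiMSum log enrichments of output over input, centred on the mode of non-aggregating sequences. Any sequence with under 100 input reads was excluded.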

Substance | amyloid nucleation score
IAYGSINCGFNRL | 1.18 ± 0.32
IAYLNKAKNLFLC | inactive
ICACIMELCSLLHGIRGM | -0.378 ± 1.4
ICFFGLDVNFTRLSTVTRFT | 2.66 ± 0.16
ICILLFGVRSDCM | 1.44 ± 0.37
ICSNGRARPGNMSV | -0.047 ± 1.7
ICVMSPGMESCGLVFGAWYT | 0.61 ± 0.56
ICWNHTTVGFGMIMVVYYL | 1.95 ± 0.091
IDMIVGNLN | inactive
IDMTQGMRLQWMFNRALLCW | 0.813 ± 0.72
IDVFLNALSVWNVIVDLIIV | -0.225 ± 0.42
IEDAALRSKEPGFVQHNYSS | 4.17 ± 0.077
IEDFEKGISVRVVTLWSWVV | -0.93 ± 0.39
IETVLIVAY | 0.355 ± 0.53
IFAPAIMSFYSLVIQWPYPG | 1.99 ± 0.45
IFAVHMLYSECTGSFRYHWS | 0.055 ± 0.79
IFCSNECVSTVDADTPGLSL | 9.289 ± 0.044
IFGKTFTGYMVRFGVVHDLA | 0.358 ± 0.41
IFGYMSGS | 0.543 ± 0.63
IFISIVLLF | 4.8 ± 0.079
IFKDLCLTTSGLDIDPNFND | 0.762 ± 0.51
IFKGGFTWYCCDKARGLKGR | 0.411 ± 0.34
IFNML | -0.083 ± 0.93
IFSENRDVGNVFSVGQIVIF | 3.72 ± 0.079

Substance | amyloid nucleation score
IFSGECHVYVGSRQGWALVI | -0.22 ± 0.98
IFSPVSCDMVTDGMGTSCWY | 0.144 ± 0.9
IFTVSRGPVTLCWDWWETHA | 0.196 ± 0.56
IGCQLNIRVCLKVILLYVEA | 0.259 ± 0.95
IGCSI | inactive
IGIGWATSLCLDRDLFVTSG | 0.029 ± 1.2
IGILMVACRLHNVSLYLCSG | -0.514 ± 0.96
IGQFMVDWYNIGGREPVPGS | 0.301 ± 0.78
IGRRDWH | 0.925 ± 0.49
IGWCWVIMQGNIEQVDRG | 4.72 ± 0.074
IGYLDMGNRFGYLLARC | -1.1 ± 0.62
IGYLDYLCCGISLFFQETEA | 0.427 ± 0.48
IHESTWSVKGSWVHQRGPGP | 2.56 ± 0.21
IHLGCCMLFRRLGECRLVV | -0.409 ± 0.29
IHLNQ | 1.15 ± 0.55
IHYIPAFYRAKSILLFVYAC | -0.241 ± 0.5
IIFGCCVF | 7.982 ± 0.062
IIFKSVNYLLPIVVKNMCGT | 1.16 ± 0.13
IIMVYSRSLLMLKLSLVVPC | inactive
IINKSLWLPRNLAFGNY | 0.117 ± 0.47
IIRGVTAGALFYYFSVILLR | -0.214 ± 0.77
IIRLVQNRSIMSFAMGISWV | 2.4 ± 0.33
IISKGSWSKSTDFGGLM | -1.83 ± 1.7
IISRLCLQLPATRT | 1.21 ± 0.67

Substance | amyloid nucleation score
IISTWSYGSES | 2.43 ± 0.14
IIWRDNNTPYD | 1.96 ± 0.7
IKATGTRPRIHRYFGNC | -0.173 ± 0.58
IKFRCYLCG | 0.44 ± 0.9
IKILLNWHV | -0.628 ± 1.7
IKLNTEALESYLLVFRMKRW | -0.605 ± 0.46
IKVSIIGWGYILAPGGESNV | -1.28 ± 0.69
ILAIKWTSVWCMESDFPIEV | -0.402 ± 0.58
ILDMMAKV | 1.56 ± 0.76
ILELGGCLVYYRGN | 0.087 ± 0.69
ILESRVPCCLKRGLNKEIGL | 0.672 ± 0.46
ILFDLQPKFVRR | 0.693 ± 0.48
ILGTIYDIMQNGDIHRFLAY | -0.834 ± 1.2
ILHFWLTYK | 4.63 ± 0.1
ILHLLRFNDIAFVKRLSAVL | -0.067 ± 0.17
ILICKLHRRVIRGWNFRSDR | 0.086 ± 0.48
ILKSFLD | -0.071 ± 0.42
ILMFWSPVGSRLTLSTSKLQ | -0.234 ± 1.6
ILMILNLRTTSPWDWNWVSV | 0.296 ± 0.83
ILNTTHCHKHKKTCEHSACD | -0.883 ± 0.48
ILRAFWESGHTGGVWATVSS | -1.19 ± 0.77
ILREQNSLDTSRFYRGRSLV | 0.187 ± 0.65
ILRQIDIDATYVIFLEMSRL | 5.854 ± 0.047
